For experiment [1], the target named is CaMKIIδ (Homo sapiens) (UniProt Q13557). Particulars: cited from earlier work.
The target of experiment [2] is biotinylated SN‐db‐short [SN (7–26, L17F, V20F)] (human). The experiment in a line: SPR; Biacore X100, room temperature; biotin‐ahx‐SN‐db‐short immobilised on a streptavidin chip (58 RU); His‐CaMKIIδ‐T287D 0.06–1 μM injected, single‐cycle; HEPES running buffer with 2.5 mM Ca2+; 1:1 Langmuir fit; average of three experiments.

Secretoneurin, sequence (P13521 182-214): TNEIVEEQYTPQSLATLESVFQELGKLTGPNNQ
CaMKIIδ (Homo sapiens), sequence (Q13557 2-499, stated change not applied): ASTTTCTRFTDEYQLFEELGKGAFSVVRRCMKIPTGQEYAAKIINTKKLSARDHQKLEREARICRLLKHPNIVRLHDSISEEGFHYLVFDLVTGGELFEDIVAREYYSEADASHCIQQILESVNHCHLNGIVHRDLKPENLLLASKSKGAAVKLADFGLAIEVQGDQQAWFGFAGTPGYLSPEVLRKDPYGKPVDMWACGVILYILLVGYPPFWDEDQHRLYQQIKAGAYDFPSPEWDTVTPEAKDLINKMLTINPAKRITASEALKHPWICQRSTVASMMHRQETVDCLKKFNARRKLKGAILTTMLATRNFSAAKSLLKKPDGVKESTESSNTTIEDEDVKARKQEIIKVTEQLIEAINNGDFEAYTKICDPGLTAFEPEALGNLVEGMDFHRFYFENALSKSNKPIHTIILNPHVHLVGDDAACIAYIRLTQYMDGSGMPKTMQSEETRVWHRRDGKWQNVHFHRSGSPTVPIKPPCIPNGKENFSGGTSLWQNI

Consider Secretoneurin (from UniProt P13521), for which, in experiment [1], the Kd was 80 nM.

As for “recombinant His‐CaMKIIδ‐T287D (species not named for the experiment) (from UniProt P15791 1-533) (enzyme)”, in experiment [2], the Kd turned out to be 68 nM, the koff worked out at 0.00057 s⁻¹ and the kon was determined as 14000 M⁻¹ s⁻¹.

(Values after article PMC12544700, “Identification of a Small Secretoneurin Derivative That Inhibits CaMKIIδ Activity” (Journal of Cellular and Molecular Medicine, 2025).)
